125 sequences from the supplement of paper PMC9112550, “Optimization of the antimicrobial peptide Bac7 by deep mutational scanning” (BMC Biology, 2022) can be followed below.

The data set deals with Escherichia coli TOP10. Description: shrunken log2 fold change of peptide-encoding DNA abundance (4.5 h post-induction vs induction); higher = less antimicrobial activity (less host growth inhibition). As to conditions: time post-induction: 4.5 h; library: site-saturation at positions 5, 18, 19, 20.
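Also: peptides expressed intracellularly from a pBAD plasmid library in pooled LB shake-flask culture, induced with 0.3% L-arabinose, DNA abundance read by NGS, three biological replicates, DESeq2 with apeglm shrinkage.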

Regarding RRIRPRPPRLPRPRPRPAYQPRP, the “shrunken log2 fold change” value is -0.0181. As to RRIRNRPPRLPRPRPRPEMFPRP, the “shrunken log2 fold change” value was 0.0119. Then RRIRCRPPRLPRPRPRPALEPRP, with -0.00844; and RRIRIRPPRLPRPRPRPADLPRP, with 0.0446; and RRIRVRPPRLPRPRPRPGLIPRP, with -0.359. Then RRIRSRPPRLPRPRPRPGHQPRP, with -0.167; and RRIRCRPPRLPRPRPRPSDIPRP, with -0.814. RRIRARPPRLPRPRPRPCTLPRP: the “shrunken log2 fold change” value was 0.151. In the case of RRIRSRPPRLPRPRPRPGWMPRP, the “shrunken log2 fold change” value was -0.0141.

On to RRIRWRPPRLPRPRPRPNCNPRP, for which the “shrunken log2 fold change” value is -0.101. RRIRPRPPRLPRPRPRPDLFPRP: the “shrunken log2 fold change” value is 0.0947.

As to RRIRIRPPRLPRPRPRPYWTPRP, the “shrunken log2 fold change” value is -0.18. On to RRIRHRPPRLPRPRPRPCMFPRP, for which the “shrunken log2 fold change” value was -0.995. Turning to RRIRKRPPRLPRPRPRPWMSPRP, the “shrunken log2 fold change” value is -0.0718.

For RRIRVRPPRLPRPRPRPESHPRP, the “shrunken log2 fold change” value was -0.138. The figure for RRIRDRPPRLPRPRPRPMECPRP is 0.0176.

With RRIRFRPPRLPRPRPRPWWSPRP, the “shrunken log2 fold change” value was -0.18. Then RRIRPRPPRLPRPRPRPIFLPRP, with 0.124; and RRIRGRPPRLPRPRPRPVEMPRP, with 0.556. On to RRIRARPPRLPRPRPRPLRQPRP, for which the “shrunken log2 fold change” value came to 0.736. As for RRIRCRPPRLPRPRPRPDLPPRP, the “shrunken log2 fold change” value is -0.265. Turning to RRIRVRPPRLPRPRPRPDGFPRP, the “shrunken log2 fold change” value was -0.0085. Take RRIRMRPPRLPRPRPRPHPYPRP: the “shrunken log2 fold change” value stood at 0.168. Take RRIRERPPRLPRPRPRPWPCPRP: the “shrunken log2 fold change” value came out at 0.151. Then RRIRYRPPRLPRPRPRPFENPRP, with -0.257; and RRIRWRPPRLPRPRPRPEFYPRP, with -0.129; and RRIRRRPPRLPRPRPRPAATPRP, with 0.335. For RRIRWRPPRLPRPRPRPQMAPRP, the “shrunken log2 fold change” value came to 0.242. Turning to RRIRSRPPRLPRPRPRPPYHPRP, the “shrunken log2 fold change” value was -0.584.

Take RRIRDRPPRLPRPRPRPPQYPRP: the “shrunken log2 fold change” value is -0.0943. Take RRIRCRPPRLPRPRPRPYQSPRP: the “shrunken log2 fold change” value was -0.307. RRIRYRPPRLPRPRPRPERTPRP: the “shrunken log2 fold change” value turned out to be 0.0654.

As to RRIRMRPPRLPRPRPRPTEWPRP, the “shrunken log2 fold change” value came out at 0.555. Consider RRIRPRPPRLPRPRPRPMGDPRP, for which the “shrunken log2 fold change” value was found to be 0.234. For the sequence RRIRIRPPRLPRPRPRPDEQPRP, the “shrunken log2 fold change” value was found to be 0.0601.

Consider RRIRFRPPRLPRPRPRPSFIPRP, for which the “shrunken log2 fold change” value was -0.831. Then RRIRYRPPRLPRPRPRPMFMPRP, with -1.22; and RRIRWRPPRLPRPRPRPVSFPRP, with 0.169; and RRIRFRPPRLPRPRPRPKDTPRP, with 0.0365. With RRIRKRPPRLPRPRPRPPFWPRP, the “shrunken log2 fold change” value came out at 1.2.

On to RRIRQRPPRLPRPRPRPHEWPRP, for which the “shrunken log2 fold change” value was 0.114. In the case of RRIRNRPPRLPRPRPRPFMPPRP, the “shrunken log2 fold change” value is -0.209. Then RRIRCRPPRLPRPRPRPGPEPRP, with 0.473; and RRIRFRPPRLPRPRPRPQSRPRP, with 0.0257; and RRIRIRPPRLPRPRPRPQSRPRP, with -0.0532. Then RRIRIRPPRLPRPRPRPDDGPRP, with -0.184; and RRIRQRPPRLPRPRPRPLGVPRP, with 0.0233; and RRIRKRPPRLPRPRPRPPIKPRP, with 0.0648.

Turning to RRIRSRPPRLPRPRPRPMKRPRP, the “shrunken log2 fold change” value was -0.115. As to RRIRFRPPRLPRPRPRPGAKPRP, the “shrunken log2 fold change” value worked out at 0.118.

Consider RRIRNRPPRLPRPRPRPCSGPRP, for which the “shrunken log2 fold change” value is -0.242. Then RRIRVRPPRLPRPRPRPHYYPRP, with 0.0781; and RRIRLRPPRLPRPRPRPYRQPRP, with -0.0238; and RRIRKRPPRLPRPRPRPQLTPRP, with 0.14. For RRIRWRPPRLPRPRPRPQDNPRP, the “shrunken log2 fold change” value is -0.421. As for RRIRSRPPRLPRPRPRPTFPPRP, the “shrunken log2 fold change” value is 0.0566.

Turning to RRIRHRPPRLPRPRPRPGFQPRP, the “shrunken log2 fold change” value was -0.0167. As to RRIRYRPPRLPRPRPRPLMNPRP, the “shrunken log2 fold change” value was -0.217.

In the case of RRIRMRPPRLPRPRPRPWIEPRP, the “shrunken log2 fold change” value is -0.092. On to RRIRNRPPRLPRPRPRPQHYPRP, for which the “shrunken log2 fold change” value was -0.319.

Regarding RRIRHRPPRLPRPRPRPRQSPRP, the “shrunken log2 fold change” value was 0.144. The figure for RRIRTRPPRLPRPRPRPAWNPRP is -0.0659.

Turning to RRIRNRPPRLPRPRPRPPPPPRP, the “shrunken log2 fold change” value came to 1.25.

Consider RRIRFRPPRLPRPRPRPHQLPRP, for which the “shrunken log2 fold change” value is -0.374.

On to RRIRDRPPRLPRPRPRPCFWPRP, for which the “shrunken log2 fold change” value worked out at 0.612.

Regarding RRIRSRPPRLPRPRPRPSNSPRP, the “shrunken log2 fold change” value was -0.145.

Regarding RRIRDRPPRLPRPRPRPSMQPRP, the “shrunken log2 fold change” value is -0.157. For RRIRPRPPRLPRPRPRPRDDPRP, the “shrunken log2 fold change” value amounted to 0.23.

For the sequence RRIRYRPPRLPRPRPRPMNPPRP, the “shrunken log2 fold change” value amounted to 0.02.

For the sequence RRIRLRPPRLPRPRPRPCCMPRP, the “shrunken log2 fold change” value was -0.408.

Take RRIRWRPPRLPRPRPRPVVQPRP: the “shrunken log2 fold change” value was -0.131. Then RRIRSRPPRLPRPRPRPSNYPRP, with -0.869; and RRIRTRPPRLPRPRPRPYAAPRP, with -0.445. Then RRIRSRPPRLPRPRPRPGHWPRP, with 0.286. Then RRIRPRPPRLPRPRPRPACMPRP, with 0.165. Take RRIRERPPRLPRPRPRPTPWPRP: the “shrunken log2 fold change” value stood at 0.108. As to RRIRSRPPRLPRPRPRPLWKPRP, the “shrunken log2 fold change” value was found to be 0.197.

As for RRIRKRPPRLPRPRPRPVHYPRP, the “shrunken log2 fold change” value was -0.0126. For RRIRHRPPRLPRPRPRPTCVPRP, the “shrunken log2 fold change” value came out at 0.134. As for RRIRARPPRLPRPRPRPHKHPRP, the “shrunken log2 fold change” value came out at 0.0909. As to RRIRIRPPRLPRPRPRPDEMPRP, the “shrunken log2 fold change” value was -0.15. RRIRTRPPRLPRPRPRPTREPRP: the “shrunken log2 fold change” value is -0.157. For RRIRFRPPRLPRPRPRPCVHPRP, the “shrunken log2 fold change” value was 0.00355. Then RRIRARPPRLPRPRPRPAQTPRP, with 0.057.

For the sequence RRIRMRPPRLPRPRPRPIRMPRP, the “shrunken log2 fold change” value came out at 0.213.

For the sequence RRIRVRPPRLPRPRPRPDFRPRP, the “shrunken log2 fold change” value was 0.00256.

Regarding RRIRLRPPRLPRPRPRPCEPPRP, the “shrunken log2 fold change” value is 0.023. On to RRIRTRPPRLPRPRPRPECSPRP, for which the “shrunken log2 fold change” value was 0.0479. For the sequence RRIRARPPRLPRPRPRPHFQPRP, the “shrunken log2 fold change” value turned out to be 0.0811. Turning to RRIRQRPPRLPRPRPRPPGSPRP, the “shrunken log2 fold change” value worked out at 0.111. With RRIRGRPPRLPRPRPRPVTIPRP, the “shrunken log2 fold change” value amounted to 0.0068.

Consider RRIRARPPRLPRPRPRPPNAPRP, for which the “shrunken log2 fold change” value is 0.825.

Turning to RRIRCRPPRLPRPRPRPFYYPRP, the “shrunken log2 fold change” value was -0.97. RRIRIRPPRLPRPRPRPRDWPRP: the “shrunken log2 fold change” value amounted to 0.429. For the sequence RRIRTRPPRLPRPRPRPWMPPRP, the “shrunken log2 fold change” value was -0.247.

With RRIRERPPRLPRPRPRPDRYPRP, the “shrunken log2 fold change” value is -0.00433. Regarding RRIRQRPPRLPRPRPRPHDAPRP, the “shrunken log2 fold change” value was -0.0149.

On to RRIRGRPPRLPRPRPRPQKHPRP, for which the “shrunken log2 fold change” value is 0.982. Then RRIRFRPPRLPRPRPRPDSEPRP, with 0.104; and RRIRYRPPRLPRPRPRPFHGPRP, with 0.0221.

As for RRIRSRPPRLPRPRPRPKLIPRP, the “shrunken log2 fold change” value is -0.257. Turning to RRIRIRPPRLPRPRPRPVMTPRP, the “shrunken log2 fold change” value was -0.166. With RRIRERPPRLPRPRPRPLAVPRP, the “shrunken log2 fold change” value is -0.0594. With RRIRWRPPRLPRPRPRPHCCPRP, the “shrunken log2 fold change” value was -0.124. Consider RRIRKRPPRLPRPRPRPCPRPRP, for which the “shrunken log2 fold change” value came to 0.163.

Turning to RRIRNRPPRLPRPRPRPLCRPRP, the “shrunken log2 fold change” value is -0.372. In the case of RRIRRRPPRLPRPRPRPCQPPRP, the “shrunken log2 fold change” value was -0.0346. On to RRIRFRPPRLPRPRPRPGNMPRP, for which the “shrunken log2 fold change” value is -0.198.

With RRIRTRPPRLPRPRPRPDMYPRP, the “shrunken log2 fold change” value is -0.235. The figure for RRIRCRPPRLPRPRPRPQHKPRP is -0.543; for RRIRWRPPRLPRPRPRPQWIPRP it is 0.0797. RRIRWRPPRLPRPRPRPEADPRP: the “shrunken log2 fold change” value is 1.5. In the case of RRIRKRPPRLPRPRPRPMQKPRP, the “shrunken log2 fold change” value is -0.00412. Take RRIRYRPPRLPRPRPRPIFLPRP: the “shrunken log2 fold change” value is -0.246. Then RRIRNRPPRLPRPRPRPQGPPRP, with 0.0355. On to RRIRERPPRLPRPRPRPWHWPRP, for which the “shrunken log2 fold change” value is -0.0299.

For RRIRKRPPRLPRPRPRPNINPRP, the “shrunken log2 fold change” value is -0.169. Take RRIRSRPPRLPRPRPRPIMEPRP: the “shrunken log2 fold change” value was -0.182. As for RRIRYRPPRLPRPRPRPRDCPRP, the “shrunken log2 fold change” value is -0.137.

With RRIRIRPPRLPRPRPRPMDQPRP, the “shrunken log2 fold change” value came out at 0.0178. Consider RRIRMRPPRLPRPRPRPGEKPRP, for which the “shrunken log2 fold change” value was found to be 0.00581. For RRIRNRPPRLPRPRPRPNYFPRP, the “shrunken log2 fold change” value was 0.169.

As to RRIRTRPPRLPRPRPRPQGNPRP, the “shrunken log2 fold change” value was -0.164. As for RRIRMRPPRLPRPRPRPCCQPRP, the “shrunken log2 fold change” value came out at 0.212. Turning to RRIRHRPPRLPRPRPRPLRRPRP, the “shrunken log2 fold change” value is 0.3.
